Positions count from the first letter of the chain named.
B1: MZ56 (antibody, V domains shown)
VH: EVQLVESGGDLVQPGGSLRLSCAASGFTFSNYAMHWVRQAPGKGLESVSAIGSNGDSIFYASSVKGRFTISRDNSKNTLYLQMGSLRADDMAVYFCARGWYYYDSRAYWYFDLWGRGTLVTVSS
VL: QPVLTQPASVSGSPGQSITISCTGTTSDVDDYNHVSWYQQYPGKAPRVMLYDVTKRPSGVPDRFSGSKSGNTASLTISGLQSEDEADYYCCSFADSHAIFGGGTKVTVLG
B2: rhMZ100-C (antibody, V domains shown)
VH: EVQLVESGGGLVQPGGSLRLSCAASGFTFSSDGMSWVRQAPGKGLEWVSYISSGGATTYYADSVKGRFTISRDNSKNTLSLQMNSLRGEDTAVYYCAKDITAPGRNGLDSWGQGVVVTVSS
VL: QSVLTQPPSLSASPGASARLPCTLSSDLNVGTKNMYWYQQKPGSAPRLFLYYYSDSDKQLGPGVPNRVSGSKETSSNTAFLLISGLQPEDEADYYCQVYDNSARVFGGGTRLTVLG
B3: rhMZ124-D (antibody, V domains shown)
VH: QVQLQESGPGLVKPSETLSLTCAVSGDSISSGYYWGWIRQSPGRGLESFGFISGSGGTTYYNPSLKTRVTISKDTSKNQFSLKLSSVTAADTAVYYCARLGHPRGIAAGGVDYWGQGVLVTVSS
VL: QSALTQPPSLSASPGASARLPCTLSSDFSVGNKNMYWYQQKPGSAPGLFLYFYSDSDNQLGPGVPNRVSGSKEASSNTAFLLISGLQPEDEADYYCQVYDRAANILFGGGTRLTVLG
B4: rhMZ119-D (antibody, V domains shown)
VH: EVQLVQSGAEVKRPGESLKISCKTSGYSFTSYWISWVRQMPGKGLEWMGAIDPSDSDTRYSPSFQGQVTISADKSISTAYLQWSSLKASDSATYYCAKEGIAARSLDVWGRGVLVTVSS
VL: SYELTQPPSVSVSPGQTARITCSGDALPKKYAYWFQQKPGQSPVLIIYEDSKRPSGIPERFSGSSSGTVATLTISGAQVEDEADYYCYSTDSSGYHGLFGGGTRLTVLG
B5: MZ4 (antibody, V domains shown)
VH: QVHLQESGPGLVRPSETLSLTCTVSDGSISSYYWSWIRQPPGKGLEWIGSIYYTGSTNYNPSLKSRVTMSVDTSKNQFSLRLNSVTAADTAMYYCAGLDRYSWNEGGDHWGQGILVSVSS
VL: QPVLTQPPSASGTPGQRVSISCSGSRSNLGKNTVNWYQQLPGTAPKLLIYNHSRRPSGVPERFSGSKSGTSASLAISGLQSEDEADYFCAAWDDSLNGLYVFGTGTKVTVLR
notes: also called MHRP ZIKV-1004
B6: MZ1 (antibody, V domains shown)
VH: QVQLQESGPGLVKSSETLSLSCTVSGASISNFYWSWVRQPPGKGLEWMGSIYYTGTITYNPSLKSRLTMSVDTSKNQFSLKLNSVTAADTAVYSCAGLDRFNWNDEGDCWGQGTLVTVFS
VL: B5 VL with P2S, S19T, K31R, T43V, N51S, H52N, S53N, E61D, G69D, R112G
B7: rhMZ103-A (antibody, V domains shown)
VH: QVQLQESGPGLVKPSETLSLTCAVSGGSISGGYDWSWIRQPPGKGLEWIGYIYGSSGSTNYNPSLKNRVTISKDTSKNQFSLKLSSVTAADTAVYYCARPAYYEDDYGYYYTTPIFDYWGQGVLVTVSS
VL: QSVLTQPPSASGAPGQSVTISCSGSSSNIGSNYVYWYQQLPGTAPKLLIYYSNQRPSGVPDRFSGSKSGTSASLAITGLRSEDEADYYCAAWDNSLSSVLFGGGTRLTVLG
B8: MZ54 (antibody, V domains shown)
VH: EVQLVESGGGLVKPGGSLRLSCSASGFNFRDFYMGWVRQAPGKGLQWVSHIGDSGGAIYYTDSVEGRFSISRDNAKNSLYLQMNSLRVEDTAIYYCVCAGGGRTDYWGQGTLVTVSS
VL: DIVMTQSPSSLSASVGDRVTITCQATQDINIYLNWYQQKPGQAPKLLIYDASRLETGVPSRFSGRGSGTDFTFTISSLQPEDFGTYYCQHYYTVPRTFGQGTKVESRR
B9: MZ20 (antibody, V domains shown)
VH: EVQVVESGGGLVKPGGSLRLSCAASGFTFSHFYMTWIRQAPGKGLESISYIGGTGSPTYYADSVVGRFTISRDNAKNSVYLEMNSLRAEDTAIYYCVRAGGARIENWGQGTLVIVSS
VL: DIVMTQSPSSLSASVGDRVTITCQASHDINIYLNWYQQRPGKAPKLLIYDASRLETGVPSRFSGTGSGTDFTFTISNLQPEDFATYFCQHYYTLPRTFGQGTKVDIKR
B10: rhMZ107-B (antibody, V domains shown)
VH: QVQLQESGPGLVKPSETLSLTCAVSGYSISSGYYWGWIRQPPGKGLEYIGYISGSSGSTYYNPSLKSRVTISKDTSKNQFSLKLSSVTAADTAVYYCARRDRVGSYPYYYGLDSWGQGVLVTVSS
VL: QSVLTQPPSLSASPGASARLPCTLSSDLSVGSKNMYWYQQKPGSAPRLFLYYYSDSDKQLGPGVPNRVSGSKETSSNTAFLLISGLQPEDEADYYCQVYDGSANDVFGSGTKLTVLG
B11: rhMZ104-D (antibody, V domains shown)
VH: EVQLVESGGGLAKPGGSLRLSCAASGFTFSDYYMDWVRQAPGKGLEWVSRISNGGGSTWYADSVKGRFTISRENAKNTLYLQMNSLRAEDTAVYYCARERYCSGGVCYAGTKYFDYWGQGVLVTVSS
VL: B10 VL with S2P, G101S, D105W, S109G, K112R
B12: rhMZ101-B (antibody, V domains shown)
VH: EVQLVESGGGLAKPGGSLRLSCAASGFSFSDYYMYWVRQAPGKGLEWVSGISYTGGSTYYADSVKGRFTISRENAKNTLYLQMDSLRAEDTAVYYCARVLYSGSYYYFDYWGQGVLVTVSS
VL: B10 VL with L82V, G101S, D105I
B13: rhMZ134-B (antibody, V domains shown)
VH: EVQLVESGGGLAKPGGSLRLSCAASGFTFSDYYMDWVRQAPGKGLEWVSRISNGGGSTWYADSVKGRFTISRENAKNTLYLQMNSLRAEDTAVYYCARGPEYCSSTYCSSAYCTGSGCYVDYGLDSWGQGVVVTVSS
VL: SYELTQPPSVSVSPGQMARITCGGDNIGSKNVQWYQQKPAQAPVLVIYADSERPSGIPERFSGSNSGNTATLTISGVEAGDEADYYCQVWDSSSDHVLFGGGTRLTVLG
B14: rhMZ121-A (antibody, V domains shown)
VH: QVQLQESGPGLVKPSETLSLTCAVSGYSISSGYYWGWIRQPPGKGLEYIGYISGSSGSTYYNPSLKSRVTISKDTSKNQFSLKLSSVTAADTAVYYCARGNYYSGSYYLFWGQGVLVTVSS
VL: B13 VL with M17T, I27L, N31Y, Q33H, A49Y, E52D, N65K, V97W, L98V
B15: rhMZ133-C (antibody, V domains shown)
VH: EVQLVESGGGLVQPGGSLRLSCAASGFTFSDYYMSWVRQAPGKGPEWVGFIRNKANGGTAEYAASVKGRFTVSRDDSKSIASLQMNSLKTEDTAVYYCAKHYCTGSGCYGAGLDSWGQGVVVTVSS
VL: QSVLTQPPSVSKSLGQSVTISCTGTSSDIGGSNDVSWYQQHPGTAPRLLIYNVSKRPSGVSDRFSGSKSGNTASLTISGLQAEDEADYYCCSYRSGSTLFGGGTRLTVLG
B16: rhMZ123-A (antibody, V domains shown)
VH: QLVQSGAEVKRPGESLRISCKTSGYSFTSYWISWVRQMPGKGLEWMGMIYPGDSDTRYSPSFQGQVTISADKSISTAYLQWSSLKASDTATYYCAKVDSSGWTNYFDYWGQGVLVTVSS
VL: QSALTQPPSVSKSLGQSVTISCTGTSSDIGGYNGVSWYQQHSGTAPRLLIYDVSKRPSGVSDRFSGSKSGNTASLTISGLQAEDEADYYCCSYRSGSTYIFGAGTRLTVLG

Experiments:
[1] = target: T1, Recombinant DENV-2 sE (1-396) from strain 16681-PDK53 with C-terminal AviTag and poly-histidine tags (Dengue virus serotype 2 strain …, UniProt P29991 281-676, biotinylated on the AviTag for BLI); experiment: ELISA on DENV-2 E
T1 construct: Produced in Expi293F cells; biotinylated for BLI; also called DENV-2 E

[2] = target: Whole purified ZIKV (ZIKV/Brazil/2015) virions (Zika virus, ZIKV/Brazil/2015); experiment: cell-based or functional assay
[3] = target: T1, Recombinant DENV-2 sE (1-396) from …; experiment: BLI and ELISA on DENV-2 E glycoprotein
DENV-2 (S16803) virus = DENV-2 (S16803) virus (Dengue virus serotype 2 strain S16803); experiment: cell-based or functional assay
[4] = target: ZIKV H/PF/2013 reporter virus particle with E mutant (D67N, A69T) (Zika virus strain H/PF/2013); experiment: cell-based or functional assay
[5] = target: ZIKV PR (Puerto Rican strain, PRVABC59) virus (Zika virus strain PRVABC59); experiment: cell-based or functional assay

Binder	binding result [1]	binding result [3]	further results
B1	binds		
B2		no binding	FlowNT50 neutralization, IC50 [2]: 1 to 3 µg/mL
B3		no binding	
B4		no binding	FlowNT50 neutralization, U937-DC-SIGN cells, IC50 [2]: 0.031 µg/mL
B5	binds		flow-based neutralization assay using human monocytes (FlowNT), IC50 [2]: 0.0083 µg/mL; flow-based neutralization assay using human monocytes (FlowNT), IC50 (DENV-2 (S16803) virus): 0.0209 µg/mL
B6	binds		
B7		no binding	neutralization in the reporter virus particle (RVP) assay, mutant against wild-type ZIKV H/PF/2013 [4]: 5 fold; FlowNT50 neutralization, IC50 [2]: 1 to 3 µg/mL
B8	binds		
B9	binds		
B10		no binding	FlowNT50 neutralization, IC50 [2]: 1 to 3 µg/mL
B11		no binding	
B12		no binding	
B13		no binding	neutralization in the reporter virus particle (RVP) assay, mutant against wild-type ZIKV H/PF/2013 [4]: 10 fold; FlowNT50 neutralization, U937-DC-SIGN cells, IC50 [2]: 0.022 µg/mL; micro-neutralization (MN50) in Vero cells, IC50 [5]: 0.0038 µg/mL
B14		no binding	
B15		no binding	neutralization in the reporter virus particle (RVP) assay, mutant against wild-type ZIKV H/PF/2013 [4]: 2 fold
B16		no binding	
